The numbers were not newly measured in publication PMC7596073, which cites them from elsewhere.

A word on the Kd: it is the free concentration of one partner at which half of the binding sites on the other are occupied at equilibrium, for simple one-to-one binding.

Values joined by “and” are separate entries in the source; they are usually repeats but may differ in a detail not shown here. Equal values may be shown once.

For the data set, the target named is IL-18BP (Homo sapiens) (UniProt O95998).
Sequence of IL-18BP (Homo sapiens) (O95998 31-194): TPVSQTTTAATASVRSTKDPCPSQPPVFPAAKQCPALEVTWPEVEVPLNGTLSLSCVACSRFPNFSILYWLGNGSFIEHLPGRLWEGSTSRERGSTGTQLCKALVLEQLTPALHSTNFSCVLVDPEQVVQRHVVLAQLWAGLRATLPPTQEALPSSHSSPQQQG

Sequence of IL-18 (Q14116 37-193): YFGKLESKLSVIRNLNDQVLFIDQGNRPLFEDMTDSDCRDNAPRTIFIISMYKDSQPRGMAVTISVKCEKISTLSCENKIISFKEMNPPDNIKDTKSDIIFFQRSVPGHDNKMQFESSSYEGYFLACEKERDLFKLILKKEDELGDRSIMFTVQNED

On to IL-18 (from UniProt Q14116), for which the Kd was 0.04 nM and 0.4 nM.
